Source: patent publication US20240309104A1 (PROMETHEUS BIOSCIENCES, published 2024)
Values joined by “and” are separate entries in the source; they are usually repeats but may differ in a detail not shown here. Equal entries are not always repeated.

How the values were obtained:
Assay in all cases: cell-based or functional assay
[1] = molecular target: T1, TL1A produced by PBMCs in cynomolgus monkey whole blood (cynomolgus monkey, UniProt G7PRK8 72-251)
T1 sequence: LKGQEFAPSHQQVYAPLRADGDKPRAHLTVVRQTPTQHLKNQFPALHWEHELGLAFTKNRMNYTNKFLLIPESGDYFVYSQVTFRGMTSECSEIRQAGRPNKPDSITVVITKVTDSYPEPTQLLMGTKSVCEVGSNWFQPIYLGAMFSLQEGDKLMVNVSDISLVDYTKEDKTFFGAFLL

[2] = molecular target: T2, recombinant human TL1A protein (human, UniProt O95150 72-251)
T2 sequence (looked up): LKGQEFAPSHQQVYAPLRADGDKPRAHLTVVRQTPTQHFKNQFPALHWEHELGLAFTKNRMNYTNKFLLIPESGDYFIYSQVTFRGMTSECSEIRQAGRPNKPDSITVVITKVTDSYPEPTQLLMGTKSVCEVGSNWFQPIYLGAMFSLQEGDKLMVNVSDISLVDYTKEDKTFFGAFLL

[3] = molecular target: T3, recombinant cynomolgus monkey TL1A protein (cynomolgus monkey, UniProt G7PRK8 72-251)
T3 sequence: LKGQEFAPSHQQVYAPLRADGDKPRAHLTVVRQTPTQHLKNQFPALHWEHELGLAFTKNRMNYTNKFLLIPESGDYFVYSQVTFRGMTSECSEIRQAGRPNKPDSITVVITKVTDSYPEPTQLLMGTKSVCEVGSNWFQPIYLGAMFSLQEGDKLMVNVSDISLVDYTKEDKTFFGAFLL

B1: anti-TL1A antibody A219 (antibody, V domains shown)
VH: QVQLVQSGAEVKKPGASVKVSCKASGFDIQDTYMHWVKQRPGQGLEWMGRIDPASGHTKYDPKFQVRVTITRDTSTSTVYLELSSLRSEDTAVYYCARSGGLPDVWGQGTTVTVSS
VL: EIVLTQSPGTLSLSPGERATLSCRASSSVSYMYWYQQKPGQAPRPLIYATSNLASGIPDRFSGSGSGTDFTLTISRLEPEDFAVYYCQQWEGNPRTFGGGTKLEIK
inhibition of the IFN-γ response in monkey whole blood (mean IC50) [1]: 1.54 nM and 289 ng/mL
inhibition of TL1A-induced caspase activation in TF-1 cells (IC50) [2]: 0.27 nM
inhibition of TL1A-induced caspase activation in TF-1 cells (IC50) [3]: 0.59 nM
